Measurements as given in article PMC6182161 (Nucleic Acids Research, 2018).
Residue numbers refer to the chain shown, from its start.

T1: purified Flag-NAT10 (UniProt Q9H0A0 1-1025)
T1 sequence (looked up): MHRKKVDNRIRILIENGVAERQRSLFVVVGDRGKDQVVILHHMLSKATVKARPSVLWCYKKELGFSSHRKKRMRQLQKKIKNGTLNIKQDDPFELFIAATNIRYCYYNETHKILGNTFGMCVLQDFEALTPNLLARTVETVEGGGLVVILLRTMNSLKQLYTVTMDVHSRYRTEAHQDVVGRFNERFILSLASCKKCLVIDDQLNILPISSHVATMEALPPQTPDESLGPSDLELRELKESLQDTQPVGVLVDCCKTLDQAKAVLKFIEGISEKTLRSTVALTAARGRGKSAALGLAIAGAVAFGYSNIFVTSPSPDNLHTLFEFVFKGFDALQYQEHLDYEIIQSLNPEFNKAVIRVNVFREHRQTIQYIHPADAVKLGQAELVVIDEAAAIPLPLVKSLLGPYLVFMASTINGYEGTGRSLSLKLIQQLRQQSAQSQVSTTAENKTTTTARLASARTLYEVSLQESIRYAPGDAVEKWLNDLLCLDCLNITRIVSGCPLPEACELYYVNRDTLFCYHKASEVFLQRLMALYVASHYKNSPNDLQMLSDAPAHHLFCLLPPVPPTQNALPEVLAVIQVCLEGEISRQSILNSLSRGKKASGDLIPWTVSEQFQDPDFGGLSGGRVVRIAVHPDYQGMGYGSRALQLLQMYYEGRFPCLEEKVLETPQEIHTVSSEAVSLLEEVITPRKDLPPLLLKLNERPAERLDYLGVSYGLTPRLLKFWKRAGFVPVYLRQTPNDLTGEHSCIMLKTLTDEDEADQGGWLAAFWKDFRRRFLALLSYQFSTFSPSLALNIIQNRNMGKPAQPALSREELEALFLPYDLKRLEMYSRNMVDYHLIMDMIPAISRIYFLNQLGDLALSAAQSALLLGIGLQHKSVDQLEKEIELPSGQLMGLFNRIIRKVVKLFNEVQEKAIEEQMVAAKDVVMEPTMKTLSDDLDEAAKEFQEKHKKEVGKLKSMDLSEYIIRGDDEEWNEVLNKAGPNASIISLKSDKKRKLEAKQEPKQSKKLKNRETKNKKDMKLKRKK

T2: Flag-NAT10 GE (UniProt Q9H0A0 1-1025, G641E)
T2 sequence (looked up): T1 sequence (looked up) with G641E

B1: GST-Che-1 (natural protein, UniProt Q9NY61 1-560, looked up)
chain: MAGPQPLALQLEQLLNPRPSEADPEADPEEATAARVIDRFDEGEDGEGDFLVVGSIRKLASASLLDTDKRYCGKTTSRKAWNEDHWEQTLPGSSDEEISDEEGSGDEDSEGLGLEEYDEDDLGAAEEQECGDHRESKKSRSHSAKTPGFSVQSISDFEKFTKGMDDLGSSEEEEDEESGMEEGDDAEDSQGESEEDRAGDRNSEDDGVVMTFSSVKVSEEVEKGRAVKNQIALWDQLLEGRIKLQKALLTTNQLPQPDVFPLFKDKGGPEFSSALKNSHKALKALLRSLVGLQEELLFQYPDTRYLVDGTKPNAGSEEISSEDDELVEEKKQQRRRVPAKRKLEMEDYPSFMAKRFADFTVYRNRTLQKWHDKTKLASGKLGKGFGAFERSILTQIDHILMDKERLLRRTQTKRSVYRVLGKPEPAAQPVPESLPGEPEILPQAPANAHLKDLDEEIFDDDDFYHQLLRELIERKTSSLDPNDQVAMGRQWLAIQKLRSKIHKKVDRKASKGRKLRFHVLSKLLSFMAPIDHTTMNDDARTELYRSLFGQLHPPDEGHGD
B2: GST-Che-1-M (domain or fragment, UniProt Q9NY61 125-246, looked up)
chain: AEEQECGDHRESKKSRSHSAKTPGFSVQSISDFEKFTKGMDDLGSSEEEEDEESGMEEGDDAEDSQGESEEDRAGDRNSEDDGVVMTFSSVKVSEEVEKGRAVKNQIALWDQLLEGRIKLQK
B3: GST-Che-1-N (domain or fragment, UniProt Q9NY61 1-124, looked up)
chain: MAGPQPLALQLEQLLNPRPSEADPEADPEEATAARVIDRFDEGEDGEGDFLVVGSIRKLASASLLDTDKRYCGKTTSRKAWNEDHWEQTLPGSSDEEISDEEGSGDEDSEGLGLEEYDEDDLGA
B4: GST-Sirt1 (enzyme, UniProt Q96EB6 1-747, looked up)
chain: MADEAALALQPGGSPSAAGADREAASSPAGEPLRKRPRRDGPGLERSPGEPGGAAPEREVPAAARGCPGAAAAALWREAEAEAAAAGGEQEAQATAAAGEGDNGPGLQGPSREPPLADNLYDEDDDDEGEEEEEAAAAAIGYRDNLLFGDEIITNGFHSCESDEEDRASHASSSDWTPRPRIGPYTFVQQHLMIGTDPRTILKDLLPETIPPPELDDMTLWQIVINILSEPPKRKKRKDINTIEDAVKLLQECKKIIVLTGAGVSVSCGIPDFRSRDGIYARLAVDFPDLPDPQAMFDIEYFRKDPRPFFKFAKEIYPGQFQPSLCHKFIALSDKEGKLLRNYTQNIDTLEQVAGIQRIIQCHGSFATASCLICKYKVDCEAVRGDIFNQVVPRCPRCPADEPLAIMKPEIVFFGENLPEQFHRAMKYDKDEVDLLIVIGSSLKVRPVALIPSSIPHEVPQILINREPLPHLHFDVELLGDCDVIINELCHRLGGEYAKLCCNPVKLSEITEKPPRTQKELAYLSELPPTPLHVSEDSSSPERTSPPDSSVIVTLLDQAAKSNDDLDVSESKGCMEEKPQEVQTSRNVESIAEQMENPDLKNVGSSTGEKNERTSVAGTVRKCWPNRVAKEQISRRLDGNQYLFLPPNRYIFHGAEVYSDSEDDVLSSSSCGSNSDSGTCQSPSLEEPMEDESEIEEFYNGLEDEPDVPERAGGAGFGTDGDDQEAINEAISVKQEVTDMNYPSNKS

What was measured:
[1] = molecular target: T1, purified Flag-NAT10; assay: pull-down
[2] = molecular target: T2, Flag-NAT10 GE; assay: pull-down

Binder	binding result [1]	binding result [2]
B1	binds	binds
B2	binds	
B3	binds	
B4	binds	
